Assay results from US20250026815A1 (GAN AND LEE PHARMACEUTICALS, published 2025).
Read-outs that look alike come from different tables or passages of the source.

B1: R3-39A3QH (antibody, human IgG1, kappa, V domains shown)
VH: QVKLEESGPELVKPGASVKISCKASGYAFSSSWVNWVQQRPGQGLEWIGRIYPGDGETKYSGKFRGKATLTADKSSNTVYMQVSSLTSVDSAVYFCAREGGLITSSGYYHAMDYWGQGTSVTVSS
VL: DIVLTQSPPSLAVSLGQRATISCRASKSVDSYGNGFMHWYQQKPGQPPKLLIFLASNLESGVPARFSGSGSRTDFTLTIDPVEADDAASYYCQQSDEDPTFGGGTKLEIKR
notes: also called chimeric antibody of R3-39A3
B2: R18-11B1QH (antibody, human IgG1, kappa, V domains shown)
VH: EVQLEESGPELVKPGASVKISCKSSAQTFSGSWINWVKQRPGQGLEWIGRIFPGDGDTKYNMNFTGKATLTADKSSNTAYMHVSSLTSVDSAVYFCARYDGYYDIGYFDVWGAGTTVTVSS
VL: DIVMTQTPASLAVSLGQRATISCRASASVDSYGNKFIHWYQQKPGQPPKLLISLASNLESGVPARFSGSGSRTDFTLTIDPVEADDAATYYCQQTNEDPWTFGGGTKLEIKR
notes: also called chimeric antibody of R18-11B1
B3: R10-6A11QH (antibody, human IgG1, kappa, V domains shown)
VH: QVKLEESGPGILQPSQTLSLTCSFSGFSLSTSGMGVSWIRQPSGKGLEWLAHIYWDDDKNYNPSLKSRLTISKDTSRNQVFLKITSVDTADTATYYCARKIYYDYDYALDYWGQGTSVTVSS
VL: DIVMTQAAFSNPVTLGTSASISCRSSKSLLHSNGITYLCWFLQKPGQSPQLLIYQMSNLASGVPDRFSGSGSGTDFTLRISRVEAEDVGVYYCAQNLELWTFGGGTKLEIKR
notes: also called chimeric antibody of R10-6A11
B4: R10-19B2QH (antibody, human IgG1, kappa, V domains shown)
VH: EVKLQESGPGMLQPSQTLSLTCSFSGFSLSTSGMGVSWIRQPSGKGLEWLAHIYWDDDKNFNPSLRSRLIISKDPSRNQVFLEITSVDTADTATYFCARKLYNDYDYILDYWGQGTSVTVSS
VL: DIVMTQAAFSNPVTLGTSASISCRSSKSLLHSNGITYLCWFLQKPGQSPQLLIYQMSNLASGVPDRFSGSGSGTDFTLRISRVEAEDVGVYYCAQNLELWTFGGGTKLEIKR
B5: R10-10B2QH (antibody, human IgG1, kappa, V domains shown)
VH: QVQLEESGAELVRSGASVKLSCTASGFNIKDYYIHWVKQRPEQGLEWIGWNDPENGDTEYAPKFQGKATMTADTSSNTVYLQLSSLTSEDSAVYFCKSFDSYLEYWGQGTSVTVSS
VL: DIVMTQTTLSLPVNLGDQASISCRSSQSLVHTDGNTFLEWYLQRPGQSPKLLIYKVSIRFSGVPDRFSGSGSGTDFTLKISRVETEDLGVYYCFQGSHVPRTFGGGTKLEIKR
notes: also called chimeric antibody of R10-10B2
B6: R1-11C3QH (antibody, human IgG1, kappa, V domains shown)
VH: EVQLEESGAELVRSGASVKLSCTASGFNIKDYYMHWVKQRPEQGLEWIGWIDPENGDTEYAPKFQGKATLTADTSSNTAYLQLSTLTSEDNAVYYCNAAYYGDYVEDMDYWGQGTSVTVSS
VL: DIVMTQTPLSLSVSLGDQASISCRSSQSIVHSDGNTFLEWYLQKPGQSPKLLIYKVSNRFSGVPDRFSGSGSGTDFTLKISRVEAEDLGVYYCFQASHLPRTFGGGTKLEIKR
notes: also called chimeric antibody of R1-11C3
B7: R18-22D7QH (antibody, human IgG1, kappa, V domains shown)
VH: EVKLLESGGGLVQPGGSLKLSCAASGFDFSRYWMSWVRQAPGKGLEWIGEINPDSSTINYTPSLKDKFIISRDNAKNTLYLQMSKVRSEDTALYYCARRGGISYAMDYWGQGTSVTVSS
VL: DIVITQDELSNPVTSGESVSISCRSSKSLLYKDGKTYLNWFLQRPGQSPQLLIYLMSTRASGVSDRFSGSGSGTDFTLEISRVKAEDVGVYYCQQLVEYPRTFGGGTKLEIKR
notes: also called chimeric antibody of R18-22D7
B8: A2-G (antibody, human IgG1, kappa, V domains shown)
VH: QVTLKESGPALVKPTQTLTLTCTFSGFSLSTSGMGVSWIRQPPGKALEWLAHIYWDDDKNFNPSLRSRLTITKDPSKNQVVLTMTNMDPVDTATYFCARKLYNDYDYILDYWGQGTTVTVSS
VL: DIVMTQSPLSLPVTPGEPASISCRSSKSLLHSNGITYLGWFLQKPGQSPQLLIYQMSNLASGVPDRFSGSGSGTDFTLKISRVEAEDVGVYYCAQNLELWTFGQGTRLEIKR
notes: also called humanized mutant antibody A2-G
B9: A2-I (antibody, V domains shown)
VH: QVTLKESGPALVKPTQTLTLTCTFSGFSLSTSGMGVSWIRQPPGKALEWLAHIYWDDDKNFNPSLRSRLTITKDPSKNQVVLTMTNMDPVDTATYFCARKLYNDYDYILDYWGQGTTVTVSS
VL: DIVMTQSPLSLPVTPGEPASISCRSSKSLLHSNGITYLIWFLQKPGQSPQLLIYQMSNLASGVPDRFSGSGSGTDFTLKISRVEAEDVGVYYCAQNLELWTFGQGTRLEIK
notes: also called humanized mutant antibody A2-I
B10: A2-Q (antibody, V domains shown)
VH: QVTLKESGPALVKPTQTLTLTCTFSGFSLSTSGMGVSWIRQPPGKALEWLAHIYWDDDKNFNPSLRSRLTITKDPSKNQVVLTMTNMDPVDTATYFCARKLYNDYDYILDYWGQGTTVTVSS
VL: DIVMTQSPLSLPVTPGEPASISCRSSKSLLHSNGITYLQWFLQKPGQSPQLLIYQMSNLASGVPDRFSGSGSGTDFTLKISRVEAEDVGVYYCAQNLELWTFGQGTRLEIK
notes: also called humanized mutant antibody A2-Q
B11: A2-M (antibody, V domains shown)
VH: QVTLKESGPALVKPTQTLTLTCTFSGFSLSTSGMGVSWIRQPPGKALEWLAHIYWDDDKNFNPSLRSRLTITKDPSKNQVVLTMTNMDPVDTATYFCARKLYNDYDYILDYWGQGTTVTVSS
VL: DIVMTQSPLSLPVTPGEPASISCRSSKSLLHSNGITYLMWFLQKPGQSPQLLIYQMSNLASGVPDRFSGSGSGTDFTLKISRVEAEDVGVYYCAQNLELWTFGQGTRLEIK
notes: also called humanized mutant antibody A2-M
B12: A2-P (antibody, V domains shown)
VH: QVTLKESGPALVKPTQTLTLTCTFSGFSLSTSGMGVSWIRQPPGKALEWLAHIYWDDDKNFNPSLRSRLTITKDPSKNQVVLTMTNMDPVDTATYFCARKLYNDYDYILDYWGQGTTVTVSS
VL: DIVMTQSPLSLPVTPGEPASISCRSSKSLLHSNGITYLPWFLQKPGQSPQLLIYQMSNLASGVPDRFSGSGSGTDFTLKISRVEAEDVGVYYCAQNLELWTFGQGTRLEIK
notes: also called humanized mutant antibody A2-P
B13: A2-A (antibody, human IgG1, kappa, V domains shown)
VH: QVTLKESGPALVKPTQTLTLTCTFSGFSLSTSGMGVSWIRQPPGKALEWLAHIYWDDDKNFNPSLRSRLTITKDPSKNQVVLTMTNMDPVDTATYFCARKLYNDYDYILDYWGQGTTVTVSS
VL: DIVMTQSPLSLPVTPGEPASISCRSSKSLLHSNGITYLAWFLQKPGQSPQLLIYQMSNLASGVPDRFSGSGSGTDFTLKISRVEAEDVGVYYCAQNLELWTFGQGTRLEIKR
notes: also called humanized mutant antibody A2-A
B14: A2-N (antibody, V domains shown)
VH: QVTLKESGPALVKPTQTLTLTCTFSGFSLSTSGMGVSWIRQPPGKALEWLAHIYWDDDKNFNPSLRSRLTITKDPSKNQVVLTMTNMDPVDTATYFCARKLYNDYDYILDYWGQGTTVTVSS
VL: DIVMTQSPLSLPVTPGEPASISCRSSKSLLHSNGITYLNWFLQKPGQSPQLLIYQMSNLASGVPDRFSGSGSGTDFTLKISRVEAEDVGVYYCAQNLELWTFGQGTRLEIK
notes: also called humanized mutant antibody A2-N
B15: R3-16A10QH (antibody, human IgG1, kappa, V domains shown)
VH: EVKLEESGPELVKPGASVKISCKTSGYAFSDSWMNWVKQRPGQGLEWIGRIYPGDGDTQYNGKVKGKATLTADKSSSTAYMQVSSLTSVDSAVYFCAREGGMITSSGYYHALDYWGQGTSVTVSS
VL: DIVMTQSPASLAVSLGQRTTISCRASESVDSYGNSFLNWYQQKPGQPPKVLIYLASNLESGVPARFSGSGSRTDFTLIIDPVEADDAATYYCQQNNEDPTFGGGTKLEIKR
notes: also called chimeric antibody of R3-16A10
B16: R3-38B6QH (antibody, human IgG1, kappa, V domains shown)
VH: QVQLEESGPELVKPGASVKISCKASGYAFSSSWMNWVKQRPGQGLEWIGRIYPGDGDTQYHGKVKGKATLTADKSSSTAYMQVSSLTSVDSAVYFCAREGGMITSNGYYHALDYWGQGTSVTVSS
VL: DIVMTQTTASLAVSQGQRATISCSASESVDSYGNSFMNWYQQKPGQPPKVLIYLASNLESGVPARFSGSGSRTDFTLTIDPVEADDAATYYCQQNNEDPTFGGGTKLEIKR
notes: also called chimeric antibody of R3-38B6

Experiments:
[1] = target: RSV-F protein of RSV A2 virus (as carried by the live virus in the neutralisation assay) (human respiratory syncytial virus, …, UniProt P03420 26-574); assay: cell-based or functional assay
RSV-F protein of RSV A2 virus (as carried by the live virus in the neutralisation assay), sequence (P03420 26-574): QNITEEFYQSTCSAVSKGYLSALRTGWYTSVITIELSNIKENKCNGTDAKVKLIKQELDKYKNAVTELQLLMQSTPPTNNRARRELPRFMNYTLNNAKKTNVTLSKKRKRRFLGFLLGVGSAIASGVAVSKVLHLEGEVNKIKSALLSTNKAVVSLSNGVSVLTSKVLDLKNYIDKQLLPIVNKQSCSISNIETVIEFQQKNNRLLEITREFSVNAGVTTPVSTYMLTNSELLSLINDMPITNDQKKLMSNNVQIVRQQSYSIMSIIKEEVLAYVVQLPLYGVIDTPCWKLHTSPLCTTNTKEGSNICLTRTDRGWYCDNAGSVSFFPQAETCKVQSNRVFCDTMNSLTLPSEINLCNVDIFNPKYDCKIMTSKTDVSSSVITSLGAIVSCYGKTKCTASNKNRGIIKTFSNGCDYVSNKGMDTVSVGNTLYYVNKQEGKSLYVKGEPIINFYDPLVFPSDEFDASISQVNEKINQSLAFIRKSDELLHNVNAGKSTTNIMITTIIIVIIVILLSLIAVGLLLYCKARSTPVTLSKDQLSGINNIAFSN

[2] = target: T1, recombinant RSV-F protein (RSV A2 strain fusion (F) protein with added His tag) (human respiratory syncytial virus, A2 …, UniProt P03420 26-524); assay: SPR (Biacore), antibody captured, RSV-F as analyte
T1 construct: also called RSV-F recombinant protein
T1 sequence (P03420 26-109, chain 1 of 2): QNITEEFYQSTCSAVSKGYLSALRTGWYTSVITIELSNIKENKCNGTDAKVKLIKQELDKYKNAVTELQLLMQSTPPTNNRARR
T1 sequence (P03420 137-524, chain 2 of 2): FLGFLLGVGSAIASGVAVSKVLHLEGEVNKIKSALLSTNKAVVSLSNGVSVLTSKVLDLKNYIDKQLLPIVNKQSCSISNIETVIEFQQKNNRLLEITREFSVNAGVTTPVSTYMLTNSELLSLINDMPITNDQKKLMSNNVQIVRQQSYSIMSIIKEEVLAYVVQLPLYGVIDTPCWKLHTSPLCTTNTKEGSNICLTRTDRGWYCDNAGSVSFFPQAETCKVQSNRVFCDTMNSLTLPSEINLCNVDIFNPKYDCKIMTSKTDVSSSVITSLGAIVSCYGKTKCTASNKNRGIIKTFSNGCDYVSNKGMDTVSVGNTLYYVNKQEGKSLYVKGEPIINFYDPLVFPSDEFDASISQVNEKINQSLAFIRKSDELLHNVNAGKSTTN

[3] = target: RSV-F protein of RSV A Long virus (as carried by the live virus in the neutralisation assay) (human respiratory syncytial virus, …, UniProt P12568 26-574); assay: cell-based or functional assay
[4] = target: RSV-F protein of RSV B9320 virus (as carried by the live virus in the neutralisation assay) (human respiratory syncytial virus, …); assay: cell-based or functional assay
[5] = target: T1, recombinant RSV-F protein (RSV A2 …); assay: SPR (Biacore), antibody captured, RSV-F as analyte; remark: listed apart in the source
[6] = target: T1, recombinant RSV-F protein (RSV A2 …); assay: SPR (Biacore), antibody captured, RSV-F as analyte; column head prints nM, Kd/Ka gives M

Binder | Absolute IC50, neutralizing RSV A2 (HEp-2 cells, indirect ELISA) [1] | Kd [2] | koff [2] | kon [2] | Absolute IC50, neutralizing RSV A Long (HEp-2 cells, indirect ELISA) [3] | Absolute IC50, neutralizing RSV B9320 (HEp-2 cells, indirect ELISA) [4] | koff [5] | kon [5] | Kd [6]
B1 | 0.00592 µg/mL | 0.171 nM | 0.000115 s⁻¹ | 673000 M⁻¹ s⁻¹ | – | – | – | – | –
B2 | 0.101 µg/mL | 0.205 nM | 0.000169 s⁻¹ | 824000 M⁻¹ s⁻¹ | 0.0432 µg/mL | – | – | – | –
B3 | 0.00745 µg/mL | – | 0.000339 s⁻¹ | 1.03e+06 M⁻¹ s⁻¹ | 0.0199 µg/mL | 0.266 µg/mL | – | – | –
B4 | 0.012 µg/mL | – | – | – | 0.0102 µg/mL | 0.021 µg/mL | – | – | –
B5 | 0.0968 µg/mL | 0.0489 nM | 3.68e-05 s⁻¹ | 753000 M⁻¹ s⁻¹ | 0.214 µg/mL | 0.0915 µg/mL | – | – | –
B6 | 0.118 µg/mL | 0.0256 nM | 1.41e-05 s⁻¹ | 549000 M⁻¹ s⁻¹ | 0.316 µg/mL | 0.0666 µg/mL | – | – | –
B7 | 0.03 µg/mL | 3.54 nM | 0.00127 s⁻¹ | 357000 M⁻¹ s⁻¹ | 0.0683 µg/mL | 0.00893 µg/mL | – | – | –
B8 | – | – | – | – | – | – | 0.000138 s⁻¹ | 1.97e+06 M⁻¹ s⁻¹ | 0.07 nM
B9 | – | – | – | – | – | – | 0.000162 s⁻¹ | 3.07e+06 M⁻¹ s⁻¹ | 0.0528 nM
B10 | – | – | – | – | – | – | 0.000166 s⁻¹ | 2.38e+06 M⁻¹ s⁻¹ | 0.0698 nM
B11 | – | – | – | – | – | – | 0.000138 s⁻¹ | 2.31e+06 M⁻¹ s⁻¹ | 0.0597 nM
B12 | – | – | – | – | – | – | 0.000156 s⁻¹ | 3.57e+06 M⁻¹ s⁻¹ | 0.0438 nM
B13 | – | – | – | – | – | – | 0.000117 s⁻¹ | 2.3e+06 M⁻¹ s⁻¹ | 0.0509 nM
B14 | – | – | – | – | – | – | 0.000165 s⁻¹ | 1.61e+06 M⁻¹ s⁻¹ | 0.102 nM
B15 | 0.0118 µg/mL | – | 2.69e-05 s⁻¹ | 537000 M⁻¹ s⁻¹ | 0.0258 µg/mL | 0.0726 µg/mL | – | – | –
B16 | 0.0176 µg/mL | 0.061 nM | 3.02e-05 s⁻¹ | 495000 M⁻¹ s⁻¹ | 0.0733 µg/mL | – | – | – | –
